Data reported in patent publication US20130095108.

Columns and labels:
[1] = molecular target: T1, Corn Trypsin Inhibitor (CTI, Calbiochem), P01088
T1 chain: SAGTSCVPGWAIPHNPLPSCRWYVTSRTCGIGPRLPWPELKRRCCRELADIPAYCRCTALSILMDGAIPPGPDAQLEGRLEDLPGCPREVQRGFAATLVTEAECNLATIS

[2] = molecular target: Peptide TCK from uPAR's domain 2 (position 196-214)
[3] = molecular target: random peptide
[4] = molecular target: Peptide LRG20 (position 166-185) from uPAR's domain 2

B1: FXII in bronchoalveolar lavage fluid (BALF) from IPF patients (protein)
chain: IPPWEAPKEHKYKAEEHTVVLTVTGEPCHFPFQYHRQLYHKCTHKGRPGPQPWCATTPNFDQDQRWGYCLEPKKVKDHCSKHSPCQKGGTCVNMPSGPHCLCPQHLTGNHCQKEKCFEPQLLRFFHKNEIWYRTEQAAVARCQCKGPDAHCQRLASQACRTNPCLHGGRCLEVEGHRLCHCPVGYTGAFCDVDTKASCYDGRGLSYRGLARTTLSGAPCQPWASEATYRNVTAEQARNWGLGGHAFCRNPDNDIRPWCFVLNRDRLSWEYCDLAQCQTPTQAAPPTPVSPRLHVPLMPAQPAPPKPQPTTRTPPQSQTPGALPAKREQPPSLTRNGPLSCGQRLRKSLSSMTRVVGGLVALRGAHPYIAALYWGHSFCAGSLIAPCWVLTAAHCLQDRPAPEDLTVVLGQERRNHSCEPCQTLAVRSYRLHEAFSPVSYQHDLALLRLQEDADGSCALLSPYVQPVCLPSGAARPSETTLCQVAGWGHQFEGAEEYASFLQEAQVPFLSLERCSAPDVHGSSILPGMLCAGFLEGGTDACQGDSGGPLVCEDQAAERRLTLQGIISWGSGCGDRNKPGVYTDVAYYLAWIREHTVS
B1 was tested, and the “FXII activity assay using chromogenic substrate” value [1] was “The specificity of performed assay was proved by blockade of FXII activity by its inhibitor, Corn Trypsin Inhibitor (CTI)”.

B2: FXIIa (activated factor XII; American Diagnostica, Stamford, Conn.) (protein)
chain: B1 chain
In the case of B2, the “[3H]-thymidine incorporation in murine lung fibroblasts” value (“[3H]-thymidine incorporation” for short) [1] is reported as “FXII-induced proliferation was blocked by FXIIa specific inhibitor, CTI”, the “p44/42 and Akt phosphorylation (Western blot) in murine lung fibroblasts” value [1] is reported as “CTI attenuated p44/42 and Akt phosphorylation after 30 min of FXIIa exposure” and the “[3H]-thymidine incorporation” value [2] is reported as “peptide TCK from domain 2 (position 196-214) and random peptide had no effect on FXIIa induced proliferation”. The “[3H]-thymidine incorporation” value [3] was “peptide TCK from domain 2 (position 196-214) and random peptide had no effect on FXIIa induced proliferation” and the “[3H]-thymidine incorporation” value [4] was “Peptide LRG20 (position 166-185) from uPAR's domain 2 blocked increase in DNA synthesis after FXIIa stimulation”.
